Measurements published in patent publication US20260219282A1.
Values belong to the binder of their own block, whether it stands above or below them.

Columns and labels:
[1] = target: monoclonal antibody raised against the C4A4-HNE target sequence; assay: competitive ELISA: standard peptide against the biotinylated peptide on a streptavidin plate, HRP-conjugated antibody; mean of the standard curves
[2] = target: monoclonal antibody raised against the C4A3-HNE target sequence; assay: as above
[3] = target: synthetic peptide mimicking the type IV collagen alpha-3 chain, undigested
[4] = target: synthetic peptide mimicking the type IV collagen alpha-4 chain, undigested

- IC50 [1]: 0.0336 µg/mL
Binder: TYPGRHGPPG [C4A4-HNE standard/selection peptide …]

- IC50 [2]: 0.0731 µg/mL
Binder: EGTRPGPPGP [C4A3-HNE standard/selection peptide …]

B1: active neutrophil elastase purified from human cells (protein)
chain: IVGGRRARPHAWPFMVSLQLRGGHFCGATLIAPNFVMSAAHCVANVNVRAVRVVLGAHNLSRREPTRQVFAVQRIFENGYDPVNLLNDIVILQLNGSATINANVQVAQLPAQGRRLGNGVQCLAMGWGLLGRNRGIASVLQELNVTVVTSLCRRSNVCTLVRGRQAGVCFGDSGSPLVCNGLIHGIASFVRGGCASGLYPDAFAPVAQFVNWIDSIIQ
- release of the neo-epitope after 4 hours of incubation with active HNE, detected by the C4A3-HNE ELISA [3]: HNE was able to generate both neo-epitopes
- release of the neo-epitope after 4 hours of incubation with active HNE, detected by the C4A4-HNE ELISA [4]: HNE was able to generate both neo-epitopes
